One molecule from US20210403541A1 can be followed below.

The term EC50 (read off the curve) denotes the concentration at which the effect is half-maximal. A lower EC50 (read off the curve) goes with greater potency.

The experiment has as its target PD17(p)PS413 (24AWF) (human). As to the kind of experiment: peptide-coated ELISA (1 µg/ml peptide 24AWF coat, anti-human IgG-HRP, ABTS, OD405).

B1: V5-AFM-hIgG4-S228P (antibody, V domains shown)
VH: EVQLVESGGGLVQPGGSLRLSCAASGFTFSSFALNWVRQAPGKGLEWVGHIRSKTNNYVTFYAASVKGRFTVSRDDSQNTAYLQMNSLKTEDTATYYCVRRGPRDSWFGYWGQGTLVTVSS
VL: DIVMTQSPLSLPVTLGEPASISCRSSQKIVHRNANTYLEWYLQKPGQSPQLLIYTVSNRFSGVPDRFSGSGSGTDFTLKISRVEAEDLGVYYCFQGSYLPLTFGGGTKVEIK
On to B1, for which the EC50 (read off the curve) was 0.05 µg/mL.
